Key:
[1] = test system: heptanedioyl-ACP methyl ester; assay type: cell-based, Escherichia coli; conditions: for impact on monomethyl heptanedioate production: 146 thioesterases screened; for activity toward heptanedioyl-ACP methyl ester in vivo: top 150 hits screened in vivo; for monomethyl heptanedioate production: bioH deletion strain, TB supplemented with 1 mM IPTG and 2 mM L-rhamnose
[2] = In vivo aminotransferase activity screening, 7-aminoheptanoate by LC-MS; assay type: cell-based, Escherichia coli; conditions: in vivo conversion of 7-oxoheptanoate to 7-aminoheptanoate, 120 aminotransferases screened
Method: A 165-member aminotransferase library from Twist on IPTG-inducible T7- pUC expression vectors was co-transformed into T7 Express lysY/Iq with a constitutive expression pJ23150-derived plasmid bearing the phosphopantetheinyl transferase sfp from Bacillus subtilis, CAR_Srot from Invista and BioC from Serratia marcescens (UniprotKB Accession No. P36571 (SEQ ID NO: 165)). The resulting strains were incubated in 0.5 ml of rich media (terrific broth or LB containing 8% glycerol) supplemented with 0.4 mM IPTG and received 1 g/L monomethyl heptanedioate, 1 g/L heptanedioate, or no organic acid addition, depending on the experiment. Following incubation overnight at 37° C. in a shaking incubator, cells were pelleted and the supernatants were analyzed using LC-MS for 7-aminoheptanoate or monomethyl 7-aminoheptanoate. A Vibrio fluvialis aminotransferase (UniProtKB Accession No. F2XBU9 (SEQ ID NO: 128)) was used as a positive control.

Molecule	activity toward heptanedioyl-ACP methyl ester in vivo [1]	other results
SEQ ID NO: 102: Peptoniphilus harei ACS-146-V-Sch2b thioesterase (protein, Peptoniphilus harei ACS-146-V-Sch2b, Peptoniphilus harei ACS-146-V-Sch2b thioesterase) MKIFCKEYEVMNFLSSDGDLKLNHLVSYLIETSNYQSIDLGLSNEKLLDMGYTWMIYKWKIKINRYPRSYEKIKIKTWASGFKNINAFREFEVYCQGEKIIEASAIFLLIDVEKRKAIKIPEVLAEIYGNNGNRIFKSIERVNEPSELEIANRFSYKILRRDLDFNNHVNNSVYLELIYEAVTDEYTHVKFKDINVNYINELKLGDEIVIDFYREEDRFYFFFKSKDQSQIYARICGVSETPIS	showed activity toward heptanedioyl-ACP methyl ester	impact on monomethyl heptanedioate production [1]: promising
SEQ ID NO: 68: Agathobacter rectalis DSM 17629 thioesterase (protein, Eubacterium rectale DSM 17629, Agathobacter rectalis DSM 17629 thioesterase) MAFSFDSRIRYSEVDSSCRLSLTGLTNYFQDCSVFHSQSHDVGIRFLADNHIAWVLSSWQICINRLPLLNEQVKISTWAYGMKAFYGYRNFTLEDAGGSTLAYANSVWVLVDTRTGRPVKVPQEFADTYGLEPQLEMECAKRKLHIPDDMEKKGEIEVPQFFIDSNHHMNNEKYVMLAQQLLPNDFEISELRVEYRKEAKLGDTVISYVKYTSKSVTVVLADTDKKPYSVVEFLSKPVPGK	showed activity toward heptanedioyl-ACP methyl ester	
SEQ ID NO: 122: Mesorhizobium sp. LC103 aminotransferase (protein, Mesorhizobium sp. LC103, Mesorhizobium sp; LC103 aminotransferase) MLDKPPLSNLQARDVASVLHPYTPLHKLETMGPLVIERGEGVYVYDTQGKAYIEGMSGLWCAGLGFGDEEMIDAATEQLRTLPYYHLFGAKGTESAIELAEKLKEIAPVPISKVFFTSSGSEANDTQVKLAWYLNNALGRPNKKKIISRQKAYHGVTIMSASLTGLPYNHIGWDLPVDRVLHTDCPHYYRFGQEGESEAEFVNRMVKSLRDLIEREGPDTIAAMIAEPVMGAGGVIVPPEGYYPAIQAVLDEHDIIMISDEVINGFGRTGNWWGSQTLGMTPKTISAAKQMTSAYAPLGAVMVPEDIYQAYVSHSEKIGTFGHGFTYGGHPLGCALGVKAIEIYQKRDILGHVRSLSPQFERRMRKLTEHPLVGEARYCGLVGGVEIVADKKTKRPFDPKVGVGPQCAKFVEERGAILRAIGDTIALCPPMIIKEDELDELFDRLEKALDDTEAWVAKEGLRAL		7-aminoheptanoate yield compared to the positive control (F2XBU9) [2]: higher 7-aminoheptanoate yields
SEQ ID NO: 72: Terrisporobacter othiniensis thioesterase (protein, listed as Terrisporobacter othiniensis) MERVFTKEYEVTYRDTDARGECFLTSYMNFMADCGLSQDEKYGFVIADMVKENHTWMLVDYEITIYKYVKYKEKLRAITYIEGMNKFYAVRYFKIYNDKDDLILEGKTLVILVDSKKRRPLSIPDEHYKAYGVEEKTPTIGRNKLKLSKCKNVDYKKEFNVRYSDIDLNLHVGNVTYLGWILETIPFEIMTDYKIYSVKIKYQKELTYGDKVSVKTEMEYNDNNISAYHEIINESEEVVALLETHWNEI	showed activity toward heptanedioyl-ACP methyl ester	impact on monomethyl heptanedioate production [1]: promising; monomethyl heptanedioate production [1]: 48 mg/L
SEQ ID NO: 81: Citrobacter rodentium thioesterase (protein, Citrobacter rodentium (strain ICC168), Citrobacter rodentium thioesterase) MVNFNNVFRWHLPFLFLILFTCRSVAADTLLILGDSLSAGYRMSASAAWPALLNDKWHSKTTIVNASISGDTSGQALARLPALLKQHQPRWVLVELGGNDGLRGFSPAQTEQTLRTILQNVKAASAEPLLMQIRLPANYGRRYNETFSAIYPKLASEFDIPLLPFFMEEVYLKPQWMQDDGIHPNRDAQPFIADWMAKQLSPLVKYES	showed activity toward heptanedioyl-ACP methyl ester	
FatB2: plant thioesterase FatB2 from Cuphea hookeriana, fatty acid acyl-ACP thioesterase, positive control (protein, listed as Cuphea hookeriana) MVAAAASSAFFPVPAPGASPKPGKFGNWPSSLSPSFKPKSIPNGGFQVKANDSAHPKANGSAVSLKSGSLNTQEDTSSSPPPRTFLHQLPDWSRLLTAITTVFVKSKRPDMHDRKSKRPDMLVDSFGLESTVQDGLVFRQSFSIRSYEIGTDRTASIETLMNHLQETSLNHCKSTGILLDGFGRTLEMCKRDLIWVVIKMQIKVNRYPAWGDTVEINTRFSRLGKIGMGRDWLISDCNTGEILVRATSAYAMMNQKTRRLSKLPYEVHQEIVPLFVDSPVIEDSDLKVHKFKVKTGDSIQKGLTPGWNDLDVNQHVSNVKYIGWILESMPTEVLETQELCSLALEYRRECGRDSVLESVTAMDPSKVGVRSQYQHLLRLEDGTAIVNGATEWRPKNAGANGAISTGKTSNGNSVS		monomethyl heptanedioate production higher than the negative control [1]: about 10 mg/L; monomethyl heptanedioate production [1]: approximately 14 mg/L
SEQ ID NO: 74: Cellulosilyticum lentocellum thioesterase (protein, listed as Cellulosilyticum lentocellum, Cellulosilyticum lentocellum (strain ATCC 49066 / DSM 5427 / NCIMB 11756 / RHM5), Cellulosilyticum lentocellum thioesterase) MSRLKENYQVDFDVVDFTGKLSINGLCSYMQTVAAKHATKLGINFYKNGEKPTYYWILSRVKYEIDTYPRWEDLVSLETYPGGYEKLFAVRLFDLTDEKGELIGRITGDYLLMDAEKGRPVRIKGATGPLSVLDFPYEGRKIDKIEVPEVVLREQIRKAYYSELDLNGHMNNAHYIRWTVDMLPLEVLKENEIVSLQINYNASITYGVETKLIIGKNEAGNYLVAGNSLDDSVNYFTSEIILRKNK	showed activity toward heptanedioyl-ACP methyl ester	impact on monomethyl heptanedioate production [1]: promising
SEQ ID NO: 80: Clostridium sp. CAG:306 thioesterase (protein, Clostridium sp. CAG:306, Clostridium sp; CAG:306 thioesterase) MLFTKEYEIKYYEQNVNGDLKESALLNFLQDIATLSAESLGFGPSFVFANNYAWVVLKYHIELFAPLRNLSSIVIKTEPRGIAKLYAYRDFELYTKDGQCIGKAVSTWVLIDICTRKLLNTQKILADFMAPYQKRETDLVYEKIDSPDELMYQEVFDVRFDDIDVNRHANNSNYIVWALETLPVDFRLKHSPKTIDIKYKKEIGINSRVLSEAQQILTDGNVQTLHVIKDEQNAQDLTSLKIVWQ	showed activity toward heptanedioyl-ACP methyl ester	
SEQ ID NO: 77: Spirochaeta smaragdinae thioesterase (protein, listed as Sediminispirochaeta smaragdinae, Sediminispirochaeta smaragdinae (strain DSM 11293 / JCM 15392 / SEBR 4228), Spirochaeta smaragdinae thioesterase) MKQVSRYTTEHTVMYSETDARGVLSLPSFFALFQEAALLHAEELGFGETYSKQENLMWVLSRLLLEIDAFPKHRDRIRLSTWPKQPQGPFAIRDYILESEEGTVCARATSSWLLLKLDTMRPIRPQTIFANLSMEGIGLAVEGTAPKISEIDNDSKQEMEVTARYSDLDQNNHVNNTRYVRWFLDCYTPEEITTSGNLHFAINYLQAASYSDKLLLRRYDTESDSSVYGYLEDGTPSFSARIERKSD	showed activity toward heptanedioyl-ACP methyl ester	
SEQ ID NO: 58: Spongiibacter sp. IMCC21906 thioesterase (protein, Spongiibacter sp. IMCC21906, Spongiibacter sp; IMCC21906 thioesterase) MTHFIQFLPGRISPRRALALLLVLLLQGALPRIVLADTILLLGDSLSAAYKIPVESSWPALLQDSIDEEHSLKNASVSGETTAGGLARLPALLAKNNTDILIIELGGNDGLRGYPLVRIRENIEKMIKLGQKKGAKVVLLGMHIPPNYGRRYADGFHNIYLSLAEENNTALLPFLLDGVAKQPRLMQGDGIHPTAEAQPIILQNVLSVLRPLLDSTN	showed activity toward heptanedioyl-ACP methyl ester	
SEQ ID NO: 78: Opitutus terrae thioesterase (protein, Opitutus terrae (strain DSM 11246 / JCM 15787 / PB90-1), Opitutus terrae thioesterase) MPEKLTLNASVLYADVDRTEVLLLRGVFKFLQEAAITHANQFDLGSRAMATRGESWVLNRMAVAVHRYPRYEETMRIETWSRGIKGFKGYREFRVFDAQGAPLFSGSSLWLYVNMRTKSIIRVPAELAAEFPKRDDGAFFPELESLEFAPPAADARRVPIAIRYSDVDVNAHVNNTAYLDFLQEALARAGLSPRPQSIRIKYARAIPAEAETVRVAIEPRGTGAAFAIEDHDTIFAIGEVD	showed activity toward heptanedioyl-ACP methyl ester	
SEQ ID NO: 79: Thermincola potens thioesterase (protein, Thermincola potens (strain JR)) MEPYQTSIPVHYYEINNHRQASPVAILNYLEEAAIRHSESVGWGIEKLLANSRGWLLTRWSLHMQKYPQWGETVNIETWPYKFERFYATREFRISDREGRVLGAATTLWVFFDLRRKRPVRIPPDIYDAYGTGAERMVADEFADLPVVDEPEIKLEFRVRLSDIDTNDHVNNTKYVEWLLETVPLSVHNGFLLSSVEIAYKKETSYGSTVLCGIKETEAGERQTTFLHIILDKDSGTELARARTVWQKRSKI	showed activity toward heptanedioyl-ACP methyl ester	

Source: patent publication US10801046B2, “Methods and materials for biosynthesizing multifunctional, multivariate molecules via carbon chain modification” (INVISTA NORTH AMERICA S.A.R.L., priority 2016, dated 2020)
